Reference: patent publication US20130323248A1

Columns and labels:
[1] = biological target: human DLL-4 expressed on the surface of CHO-K1 cells (CHO-DLL-4 cells) (human) (UniProt Q9NR61); assay: flow cytometry competition; 20 ug/ml FITC-rhNotch-1 on CHO-DLL-4 cells, increasing antibody concentrations
[2] = biological target: human DLL-4 expressed on the surface of CHO-K1 cells (CHO-DLL-4 cells) (human) (UniProt Q9NR61); assay: flow cytometry (HTFC) on CHO-K1 cells stably expressing DLL-4
[3] = biological target: Recombinant Human DLL4 (human) (UniProt Q9NR61); assay: Biacore SPR

IC50 [1]	EC50 [2]	Ka [3]	Kd [3]	Substance
1.72 nM	1.7 nM	–	–	anti-DLL-4 antibody OMP21M18 (Oncomed)
–	–	5.86e+08 M⁻¹	1.71 nM	21M18
